From PMC5342195, “Structure-based mutational analysis of ICAT residues mediating negative regulation of β-catenin co-transcriptional activity” (PLoS ONE, 2017)

T1: ICAT D66G + F71A + E75V (GAV), Flag-tagged (human, UniProt Q9NSA3 1-81, D66G | F71A | E75V)
T1 construct: ICAT, human cDNA of 243 bp in pFLAG-CMV2, triple mutant of the C-terminal domain; also called ICAT-GAV; source: Mel501 cells, transiently transfected, in total cell lysate
T1 sequence (looked up): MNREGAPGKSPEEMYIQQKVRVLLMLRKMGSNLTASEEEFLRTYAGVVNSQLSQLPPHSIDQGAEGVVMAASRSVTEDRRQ


Columns and labels:
[1] = target: T2, WT ICAT-GST recombinant protein (human, UniProt Q9NSA3 1-81); test: pull-down; WT ICAT-GST on glutathione-Sepharose 4B beads incubated 3 h at 4°C with total cell lysate in RIPA (500 μg of total proteins) of Lu1205 cells transfected with HA-tagged β-catenin-NLS WT or mutants; washed five times; anti-HA blot; densitometry with ImageJ; settings: one partner purified
T2 construct: ICAT, WT human cDNA cloned in the bacterial expression vector pGEX-4T3; also called recombinant WT ICAT-GST protein

[2] = target: T3, ICAT D66G + F71A (GA), Flag-tagged (human, UniProt Q9NSA3 1-81, D66G | F71A); test: co-IP; total cell lysates of Mel501 cells transfected with ICAT-Flag WT or mutants, anti-Flag monoclonal antibody 2 h at 4°C, Protein G agarose, washed with RIPA; blot for endogenous β-catenin; densitometry with ImageJ, control fixed to 1.0; settings: partners not purified
T3 construct: ICAT, human cDNA of 243 bp in pFLAG-CMV2, double mutant of the C-terminal domain; also called ICAT-GA; source: Mel501 cells, transiently transfected, in total cell lysate

[3] = target: T4, ICAT F71A + E75V (AV), Flag-tagged (human, UniProt Q9NSA3 1-81, F71A | E75V); test: as above; settings: partners not purified
T4 construct: ICAT, human cDNA of 243 bp in pFLAG-CMV2, double mutant of the C-terminal domain; also called ICAT-AV; source: Mel501 cells, transiently transfected, in total cell lysate

[4] = target: T1, ICAT D66G + F71A + E75V (GAV), …; test: as above; settings: partners not purified

| Binder | fold of pulled-down protein against full-length WT β-catenin [1] [fold] | reduction of co-precipitated β-catenin against ICAT WT [2] [%] | reduction of co-precipitated β-catenin against ICAT WT [3] [%] | reduction of co-precipitated β-catenin against ICAT WT [4] [%] |
| --- | --- | --- | --- | --- |
| HA-tagged β-catenin-NLS Δ665 (D665X) (domain or fragment, UniProt P35222 1-664, looked up, β-catenin of the HA-tagged CMV::β-catenin-NLS expression vector, truncated by a premature stop codon at residue 665 (D665X); lacks helix C (residues 667-683) and the C-terminal domain; If the NLS stood at the C-terminus of the parent construct, the stop codon would remove it; also called β-catenin Δ665; source: Lu1205 cells, transfected, in total cell lysate) MATQADLMELDMAMEPDRKAAVSHWQQQSYLDSGIHSGATTTAPSLSGKGNPEEEDVDTSQVLYEWEQGFSQSFTQEQVADIDGQYAMTRAQRVRAAMFPETLDEGMQIPSTQFDAAHPTNVQRLAEPSQMLKHAVVNLINYQDDAELATRAIPELTKLLNDEDQVVVNKAAVMVHQLSKKEASRHAIMRSPQMVSAIVRTMQNTNDVETARCTAGTLHNLSHHREGLLAIFKSGGIPALVKMLGSPVDSVLFYAITTLHNLLLHQEGAKMAVRLAGGLQKMVALLNKTNVKFLAITTDCLQILAYGNQESKLIILASGGPQALVNIMRTYTYEKLLWTTSRVLKVLSVCSSNKPAIVEAGGMQALGLHLTDPSQRLVQNCLWTLRNLSDAATKQEGMEGLLGTLVQLLGSDDINVVTCAAGILSNLTCNNYKNKMMVCQVGGIEALVRTVLRAGDREDITEPAICALRHLTSRHQEAEMAQNAVRLHYGLPVVVKLLHPPSHWPLIKATVGLIRNLALCPANHAPLREQGAIPRLVQLLVRAHQDTQRRTSMGGTQQQFVEGVRMEEIVEGCTGALHILARDVHNRIVIRGLNTIPLFVQLLYSPIENIQRVAAGVLCELAQDKEAAEAIEAEGATAPLTELLHSRNEGVATYAAAVLFRMSE | 1.5 | – | – | – |
| endogenous β-catenin of Mel501 cells (natural protein, human (endogenous in Mel501), UniProt P35222 1-781, looked up, β-catenin, endogenous in the human melanoma cell line Mel501; also called CTNNB1; source: endogenous, Mel501 total cell lysate) MATQADLMELDMAMEPDRKAAVSHWQQQSYLDSGIHSGATTTAPSLSGKGNPEEEDVDTSQVLYEWEQGFSQSFTQEQVADIDGQYAMTRAQRVRAAMFPETLDEGMQIPSTQFDAAHPTNVQRLAEPSQMLKHAVVNLINYQDDAELATRAIPELTKLLNDEDQVVVNKAAVMVHQLSKKEASRHAIMRSPQMVSAIVRTMQNTNDVETARCTAGTLHNLSHHREGLLAIFKSGGIPALVKMLGSPVDSVLFYAITTLHNLLLHQEGAKMAVRLAGGLQKMVALLNKTNVKFLAITTDCLQILAYGNQESKLIILASGGPQALVNIMRTYTYEKLLWTTSRVLKVLSVCSSNKPAIVEAGGMQALGLHLTDPSQRLVQNCLWTLRNLSDAATKQEGMEGLLGTLVQLLGSDDINVVTCAAGILSNLTCNNYKNKMMVCQVGGIEALVRTVLRAGDREDITEPAICALRHLTSRHQEAEMAQNAVRLHYGLPVVVKLLHPPSHWPLIKATVGLIRNLALCPANHAPLREQGAIPRLVQLLVRAHQDTQRRTSMGGTQQQFVEGVRMEEIVEGCTGALHILARDVHNRIVIRGLNTIPLFVQLLYSPIENIQRVAAGVLCELAQDKEAAEAIEAEGATAPLTELLHSRNEGVATYAAAVLFRMSEDKPQDYKKRLSVELTSSLFRTEPMAWNETADLGLDIGAQGEPLGYRQDDPSYRSFHSGGYGQDALGMDPMMEHEMGGHHPGADYPVDGLPDLGHAQDLMDGLPPGDSNQLAWFDTDL | – | > 70 | > 70 | > 70 |
